Test results reported in the supplement of paper PMC10567573.
± gives the standard deviation.

Experiment: protein stability index of a GFP-peptide fusion (GPS, HEK-293T) (PSI 1-6); higher = more stable
[1] = treatment: DMSO, c terminus: a fixed tail appended
[2] = treatment: MLN4924 1 uM, 8 h, c terminus: a fixed tail appended
[3] = treatment: DMSO, c terminus: native
[4] = treatment: MLN4924 1 uM, 8 h, c terminus: native
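Note: 24-mer peptide tiles fused after GFP, lentivirally expressed, FACS-sorted into six equal bins by GFP/DsRed ratio, decoded by Illumina sequencing, PSI is the read-weighted mean bin number.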

Row | Sequence | protein stability index [1] | protein stability index [2] | protein stability index [3] | protein stability index [4]
1 | AAAVLFRMSEDKPQDYKKRLSVEL [CTNNB1] | 2.62 ± 0.31 | 2.25 ± 0.27 | – | –
2 | AAAYSPSEALLYALVHDHQAYAHY [ANKRD9] | 2.05 ± 0.14 | 2.27 ± 0.28 | – | –
3 | AALSERGQAEEELIKAKSQARLEE [LRRC45] | 5.28 ± 0.55 | 5.39 ± 0.46 | – | –
4 | AAPDCTPSLEAGNPAPAAPCPLGE [MYCL] | 5.42 ± 0.25 | 5.49 ± 0.26 | – | –
5 | AAWIGGFLHSLVQFLFIYQLPFCG [OR4A15] | 3.92 ± 0.8 | 3.21 ± 0.6 | – | –
6 | ACGDAFTVAIGAESEVYSWGKGAR [NEK8] | 2.84 ± 0.23 | 2.77 ± 0.3 | – | –
7 | ACGVILYILLVGYPPFWDEDQHRL [CAMK2D] | 2.6 ± 0.9 | 2.63 ± 0.51 | – | –
8 | ACYAGAAPAPSQVKSKAKKTVDKH [CEBPB] | 4.95 ± 0.33 | 5.09 ± 0.39 | – | –
9 | ADDPDDGPVPGTPGLPGSTGNPKS [SPNS1] | 5.47 ± 0.39 | 5.49 ± 0.35 | – | –
10 | ADGSLRMDDPKGDFITLYQMASQS [M1AP] | 3.58 ± 0.083 | 3.53 ± 0.15 | – | –
11 | ADIFRIYAPEAPYTSPDKLKDIFM [PDS5B] | 2.06 ± 0.11 | 2.1 ± 0.21 | – | –
12 | ADISQMLVCTADGDIHLSPEEPAA [TAF7L] | 4.93 ± 0.17 | 4.94 ± 0.077 | – | –
13 | AEEETLSRELEPELRRRRYEYDHW [ALKBH7] | 4.35 ± 0.29 | 4.59 ± 0.22 | – | –
14 | AEFQSLFSLLEELKEGMLMKIKQD [FSD1] | 2.21 ± 0.36 | 2.33 ± 0.2 | – | –
15 | AEGALEEVPLEVLRQRESKWLDML [TBC1D10A] | 4.09 ± 0.88 | 3.91 ± 0.47 | – | –
16 | AEKSGEATDGARPQALPEPMQESK [CHGA] | 5.47 ± 0.3 | 5.48 ± 0.22 | – | –
17 | AERYGLSGSDVLDNVAYARAFNTD [RAD51] | 3.99 ± 0.2 | 4.07 ± 0.32 | – | –
18 | AFYDVTGGMSHLHTFRATFQEPLY [TRIM14] | 2.31 ± 0.25 | 2.41 ± 0.5 | – | –
19 | AGEFTGWEKVGSGGFGQVYKVRHV [RIPK4] | 2.46 ± 0.61 | 2.25 ± 0.29 | – | –
20 | AGEVVCEAIKNEMNVMLKSSPVDL [IMPA1] | 3.67 ± 0.91 | 4.11 ± 0.25 | – | –
21 | AGIVRVFSGTPPPPVLSFRLVHTT [FCHO1] | 1.99 ± 0.07 | 2.13 ± 0.57 | – | –
22 | AGPGGGAERRRAGRLLLTLPLLRQ [ESRRA] | 2.53 ± 0.29 | 2.84 ± 0.21 | – | –
23 | AGQEGEDTLRRRLLAPEAGSHPQQ [TOR1AIP2] | 3.22 ± 0.89 | 3.8 ± 0.52 | – | –

Row | Sequence | protein stability index [1] | protein stability index [2] | protein stability index [3] | protein stability index [4]
24 | AGTAGHPPSGSQPLTSTQGLEHAA [FBF1] | 4.84 ± 0.11 | 4.89 ± 0.35 | – | –
25 | AHAGAVHNGKIYISGGVHNGEYVP [KLHL14] | 3.03 ± 0.28 | 2.82 ± 0.41 | – | –
26 | AIHSSDEGEDQAGDEDEDDEWDD [WAS] | – | – | 5.06 ± 0.3 | 5.25 ± 0.29
27 | AILSLDQIKAIRGSNEYTEGPSVV [SPRY1] | 3 ± 0.072 | 2.98 ± 0.3 | – | –
28 | AIQDQLPRLQQLLKTLEEGLEGLE [FANCE] | 3.61 ± 0.32 | 3.68 ± 0.23 | – | –
29 | AKKKRLTKADIGTPSNFQHIGHVG [WASL] | 3.52 ± 0.3 | 3.67 ± 0.18 | – | –
30 | AKVGPGLPDGCQPLQLLREMRQAL [CBY2] | 2.73 ± 0.57 | 2.82 ± 0.33 | – | –
31 | ALHIIVQYNRPISDFLTLHSIIIS [FEM1B] | 3.03 ± 1 | 2.37 ± 0.56 | – | –
32 | ALLWLSCSIALLRALATSNARAQQ [GNAS] | 3.21 ± 0.51 | 2.99 ± 0.25 | – | –
33 | ALSEQKAQDLGELLATAEQEQLSL [LRRC45] | 5.07 ± 0.36 | 5.27 ± 0.1 | – | –
34 | ALVRWWNGIGAVLDFTHPKARDWF [MYORG] | 2.59 ± 0.52 | 2.3 ± 0.51 | – | –
35 | APDFVGDILWEHLEQMIKENQEKT [ETS2] | 4.44 ± 0.13 | 4.58 ± 0.14 | – | –
36 | APNRFFQKLNVFKNFIGLLQNQNF [NLN] | – | 2.24 ± 0.82 | – | –
37 | APPLPDSPQPLASSPGPWGLEALA [FCHO1] | 4.43 ± 0.16 | 3.99 ± 0.18 | – | –
38 | APSPSPVTPAQNNLLQPNFEAAFG [SNAP91] | 4.43 ± 0.089 | 4.54 ± 0.38 | – | –
39 | APVSRGRDSYGGPPRREPLPSRRD [RBMX] | 5.12 ± 0.21 | 4.93 ± 0.22 | – | –
40 | APYFERSSSKRYTMSRSLDGASVN [EPB41L3] | 3.3 ± 0.33 | 3.44 ± 0.7 | – | –
41 | AQAHRIHIDPEIQDGSPTTSRRPS [PDLIM4] | 5.31 ± 0.43 | 5.34 ± 0.22 | – | –
42 | AQDPDVGTNTVSFYTLSPNSHFSL [PCDHGC5] | 2.57 ± 0.26 | 2.61 ± 0.3 | – | –
43 | AQRQACMYASSAPPSEPVPSLEDI [TBX5] | 4.92 ± 0.14 | 4.96 ± 0.077 | – | –
44 | ARGAGPPEPLRICPLHISVKEELD [TRIM35] | 4.59 ± 0.19 | 4.86 ± 0.4 | – | –
45 | ARGGAVSARYVLPDEAARARLLQE [DUSP5] | 4.63 ± 0.16 | 4.54 ± 0.34 | – | –
46 | ARRRVCHTEDFQKEEGTVNGASWH [CPXM2] | 4.57 ± 0.16 | 4.71 ± 0.84 | – | –

Row | Sequence | protein stability index [1] | protein stability index [2] | protein stability index [3] | protein stability index [4]
47 | ARVKAFNKTGVSPYSKTLVLQTSE [TRIM9] | 3.2 ± 0.28 | 3.34 ± 0.21 | – | –
48 | ASDMFRRLRDAGFRVTLWVHPFVN [MYORG] | 2.23 ± 0.17 | 2.13 ± 0.053 | – | –
49 | ASKCKGAAVKLADFGLAIEVQGDQ [CAMK2B] | 3.5 ± 0.28 | 3.6 ± 0.37 | – | –
50 | ASKWGMSYDELCFLEQRPQSPTLE [EDARADD] | 3.67 ± 0.12 | 3.81 ± 0.062 | – | –
51 | ASLENSLEETKGRYCMQLSQIQGL [KRT16] | 3.3 ± 0.39 | 3.17 ± 0.25 | – | –
52 | ASLNGYRLGERVLQVSFKTSKQHK [ELAVL3] | 3.45 ± 0.13 | 3.52 ± 0.32 | – | –
53 | ASRVKLQHLPAQEQWDRLLVLYPT [PLEKHN1] | 2.21 ± 0.14 | 2.41 ± 0.35 | – | –
54 | ASSGGAGAAVGTGSSYPTTTISYL [JUNB] | 2.8 ± 0.34 | 2.79 ± 0.39 | – | –
55 | ASVPKVETVKSDNKDDDIDIDAI [EIF5] | – | – | 5.59 ± 0.17 | 5.53 ± 0.22
56 | ATKFKQLYRSRMNSLEMTPAVRQR [HMOX1] | 3.32 ± 0.21 | 3.56 ± 0.27 | – | –
57 | ATRGVPAKRLLDADDAAAVAAKCP [TRIB1] | 4.39 ± 1.5 | – | – | –
58 | AVKDGLIVETLTVGCKGSKAGIEQ [ZMYND11] | 3.57 ± 0.14 | 3.48 ± 0.22 | – | –
59 | AVPVSTSKPSSDLLDLQPDFSSGG [SNAP91] | 4.76 ± 0.17 | 4.84 ± 0.14 | – | –
60 | AWEKLLAAFPNLANLSRTQLLHLG [KLHDC10] | 2.06 ± 0.27 | 2.1 ± 0.11 | – | –
61 | AWETKKILAVSFAPLIQPCHSESG [PCMTD2] | 2.35 ± 0.2 | 2.54 ± 0.35 | – | –
62 | AWIWHDCHRHYHSMEVFTHYDLLN [LOXL2] | 2.41 ± 0.14 | 3 ± 1.2 | – | –
63 | AYNHRTDLFKSFPGPMDWVPRYTG [ADAMTS4] | 2.89 ± 0.14 | 2.82 ± 0.11 | – | –
64 | CCQWLKPKMRSKEQILELLVLEQF [ZNF449] | 2.46 ± 0.51 | 2.46 ± 0.52 | – | –
65 | CDPSRIYKPQTRLKRKQPVRKRQ [DFFB] | – | – | 3.96 ± 0.36 | 4.15 ± 0.13
66 | CEITKRRRKACQACRFTKCLRVGM [ESRRA] | 2.26 ± 0.17 | 2.32 ± 0.22 | – | –
67 | CGNIKAPSLQAWNDAPCDKTFLFI [CD207] | 2.72 ± 0.41 | 2.49 ± 0.55 | – | –
68 | CHHLPVIRQLATSGRFIVIIPRTV [SMG5] | 2.52 ± 0.6 | 2.56 ± 0.33 | – | –
69 | CISKNEWIQFNHPYTEKPRLWHTA [KLHDC2] | 2.43 ± 0.48 | 2.36 ± 0.3 | – | –

Row | Sequence | protein stability index [1] | protein stability index [2] | protein stability index [3] | protein stability index [4]
70 | CKLTCQAQALGYYYVLEPRVVDGT [ADAMTS4] | 2.86 ± 2 | 2.77 ± 1.1 | – | –
71 | CLSTWLLHFIATNYLIFSQKPEFQ [RHOBTB3] | 3.09 ± 0.19 | 3.22 ± 0.2 | – | –
72 | CMFCLYSFMPLVIKVTSATSVNLG [SLC35F2] | 2.91 ± 0.72 | 2.73 ± 0.41 | – | –
73 | CMGAMSLFLPCLLCYPPAKGCLKL [SPRY1] | 2.8 ± 0.56 | 3.04 ± 0.83 | – | –
74 | CPECYPDNPANRSLVLPWSFPLEW [TOR1AIP2] | 2.5 ± 0.28 | 2.77 ± 0.24 | – | –
75 | CQRSRYRDSLTQPDEEPMHYGNIM [RSPH3] | 3.37 ± 0.39 | 3.45 ± 0.3 | – | –
76 | CRDLVDEAKNYLLLPQERPLMQGP [KLHL20] | 2.65 ± 0.33 | 2.75 ± 0.12 | – | –
77 | CRSKTLGYQHVDLQNFSSSWSDGM [SMTNL2] | 2.47 ± 0.079 | 2.41 ± 0.27 | – | –
78 | CSRFFIDFPDILEQQRKLETYLQN [TENT5C] | 2.17 ± 0.22 | 2.24 ± 0.12 | – | –
79 | CSRPSGSSSSSGVLMVGPNFRVGK [CSNK1G1] | 3.63 ± 0.47 | 3.74 ± 0.62 | – | –
80 | CTAKCGERSVVTRDIRCSEDEKLC [ADAMTSL2] | 4.63 ± 0.38 | 4.61 ± 0.18 | – | –
81 | CTDCGKSFNHNAHLTVHKRIHTGE [ZNF8] | 4.54 ± 0.21 | 4.41 ± 0.21 | – | –
82 | CTSVNTIYDNAVQGLRRHEILQWV [LRRC59] | 2.3 ± 0.17 | 2.13 ± 0.2 | – | –
83 | CTVLRDARIRSHSWLESCIVGWRC [GMPPB] | 2.42 ± 0.39 | 1.93 ± 0.43 | – | –
84 | CVLVDTGRPIPGTSTRYEQPKCDN [SMOC2] | 3.79 ± 0.31 | 3.77 ± 0.22 | – | –
85 | CVSIPDVVGWFVLFYKPGIVLLLA [GULP1] | 2.63 ± 0.55 | 3.09 ± 0.066 | – | –
86 | CWKMLSPGFDSSVYSDLCEAAEAV [ADAMTSL2] | 2.69 ± 0.34 | 3.16 ± 0.71 | – | –
87 | DAALLEMENNHTVAITILQDDHDH [MTUS2] | 4.98 ± 0.21 | 4.92 ± 0.065 | – | –
88 | DAGGWVLIDRSGRHFGTILNYLRD [KCTD13] | 2.33 ± 0.25 | 2.08 ± 0.42 | – | –
89 | DCPMDSSSSRDTDWVVVKEPVIKV [PI4K2A] | 3.6 ± 0.4 | 4 ± 0.53 | – | –
